Results: patent US20170008928A1, “NOVEL PEPTIDES AND PEPTIDE DERIVATIVES AND USES THEREOF” (Novo Nordisk A/S, priority 2015, published 2017)
Starred links: 1 amine or outer side, 2 acyl side, 3 side chain; linkers in the order of their positions; H or OH if unused. Non-standard residues stand in square brackets, D forms with d. No end group written: not given here. *: point of attachment. Phe(4-CH2SO3H) = N[C@@H](Cc1ccc(CS(=O)(=O)O)cc1)C(=O)O; sY = N[C@@H](Cc1ccc(OS(=O)(=O)O)cc1)C(=O)O; C18 diacid = O=C(O)CCCCCCCCCCCCCCCCC(=O)*; γGlu = O=C(O)[C@H](CCC(=O)[*:2])N[*:1]; Met(O2) = CS(=O)(=O)CC[C@H](N)C(=O)O; NMeF = CN[C@@H](Cc1ccccc1)C(=O)O; dNMeD = CN[C@H](CC(=O)O)C(=O)O; Nle = CCCC[C@H](N)C(=O)O; AEEA = NCCOCCOCC(=O)O

T1: human cholecystokinin-1 receptor (human), P32238
T1 chain: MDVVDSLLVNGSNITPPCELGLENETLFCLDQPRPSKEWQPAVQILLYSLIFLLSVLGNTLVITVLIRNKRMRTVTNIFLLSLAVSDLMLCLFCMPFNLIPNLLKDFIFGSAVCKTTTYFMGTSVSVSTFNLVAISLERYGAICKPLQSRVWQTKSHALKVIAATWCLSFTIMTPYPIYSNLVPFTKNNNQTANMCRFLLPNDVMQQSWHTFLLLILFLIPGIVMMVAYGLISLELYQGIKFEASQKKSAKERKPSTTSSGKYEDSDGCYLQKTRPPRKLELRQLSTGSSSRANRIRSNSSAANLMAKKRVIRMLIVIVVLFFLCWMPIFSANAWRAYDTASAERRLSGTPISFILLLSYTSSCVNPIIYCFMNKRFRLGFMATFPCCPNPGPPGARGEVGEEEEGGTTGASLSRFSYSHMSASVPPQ

T2: human cholecystokinin-2 receptor (human, UniProt P32239 1-447)
T2 sequence (looked up): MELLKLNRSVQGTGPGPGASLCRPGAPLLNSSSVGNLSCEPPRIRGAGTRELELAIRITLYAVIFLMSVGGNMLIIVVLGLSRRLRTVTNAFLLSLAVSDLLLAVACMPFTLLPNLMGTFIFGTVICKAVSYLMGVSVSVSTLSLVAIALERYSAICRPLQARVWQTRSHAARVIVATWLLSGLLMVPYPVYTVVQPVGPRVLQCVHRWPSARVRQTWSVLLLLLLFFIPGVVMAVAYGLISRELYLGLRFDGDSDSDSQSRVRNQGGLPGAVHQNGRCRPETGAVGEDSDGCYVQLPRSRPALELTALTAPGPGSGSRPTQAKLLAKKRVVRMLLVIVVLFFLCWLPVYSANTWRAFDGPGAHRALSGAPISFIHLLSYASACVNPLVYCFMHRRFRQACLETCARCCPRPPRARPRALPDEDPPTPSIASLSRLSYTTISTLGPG

T3: human cholecystokinin-1 receptor (human, UniProt P32238 1-428)
T3 construct: whole, on cells; also called CCK-1R; CCK-1 receptor
T3 sequence (looked up): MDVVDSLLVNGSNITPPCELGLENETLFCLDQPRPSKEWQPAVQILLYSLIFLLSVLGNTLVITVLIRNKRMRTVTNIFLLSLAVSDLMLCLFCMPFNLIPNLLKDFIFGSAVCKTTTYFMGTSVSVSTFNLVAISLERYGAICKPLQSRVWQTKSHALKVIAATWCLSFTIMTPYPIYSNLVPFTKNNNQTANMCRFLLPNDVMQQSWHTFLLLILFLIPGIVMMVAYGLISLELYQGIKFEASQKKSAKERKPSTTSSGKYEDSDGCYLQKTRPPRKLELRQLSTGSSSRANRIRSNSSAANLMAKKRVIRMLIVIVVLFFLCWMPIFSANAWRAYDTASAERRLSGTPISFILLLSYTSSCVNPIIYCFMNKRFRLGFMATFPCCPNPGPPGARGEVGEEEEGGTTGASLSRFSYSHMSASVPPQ

T4: human cholecystokinin-2 receptor (human), P32239
T4 chain: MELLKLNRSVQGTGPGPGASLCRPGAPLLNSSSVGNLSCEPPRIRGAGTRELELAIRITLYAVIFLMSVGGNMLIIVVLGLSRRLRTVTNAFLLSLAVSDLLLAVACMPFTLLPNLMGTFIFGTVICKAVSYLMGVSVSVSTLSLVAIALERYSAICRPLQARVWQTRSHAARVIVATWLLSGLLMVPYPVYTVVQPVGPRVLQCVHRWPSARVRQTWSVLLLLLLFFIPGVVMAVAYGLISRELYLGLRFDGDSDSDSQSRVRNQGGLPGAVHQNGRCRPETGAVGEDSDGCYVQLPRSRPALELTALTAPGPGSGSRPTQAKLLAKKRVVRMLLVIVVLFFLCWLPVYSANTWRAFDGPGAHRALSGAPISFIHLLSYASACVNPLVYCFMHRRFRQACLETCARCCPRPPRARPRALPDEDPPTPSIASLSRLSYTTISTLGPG


Assays:
[1] = molecular target: T1, human cholecystokinin-1 receptor …; test: SPA competition vs [125I]-CCK-8s, membranes
[2] = molecular target: T1, human cholecystokinin-1 receptor …; test: cell-based or functional assay
[3] = molecular target: T2, human cholecystokinin-2 receptor; test: cell-based or functional assay
[4] = molecular target: T3, human cholecystokinin-1 receptor; test: SPA competition vs [125I]-CCK-8s, membranes
Description: (§1) CCK receptor binding assays were performed in 96-well Optiplates (Cat #6005290, PerkinElmer, Waltham, Mass., USA) in a total volume of 200 μl per well.
(§2) The plates were sealed and incubated in the dark at +22° C. for 2 hours on a IKA MTS plate shaker (IKA-Werke D-79219 Staufen) set at 300 rpm and thereafter centrifuged at 1500 rpm for 10 minutes in a Heraeus Multifuge 3s centrifuge. SPA bead light emission was measured in a TopCount NXT (PerkinElmer) for 2 min/well after a delay of 60 min.

[5] = molecular target: T3, human cholecystokinin-1 receptor; test: cell-based or functional assay
[6] = molecular target: T2, human cholecystokinin-2 receptor; test: SPA competition vs [125I]-CCK-8s, membranes
Description: as §1, §2

[7] = molecular target: T4, human cholecystokinin-2 receptor …; test: cell-based or functional assay

Row | Binder | IC50 [1] | EC50 (CCK-1R) [2] | EC50 (CCK-2R) [3] | IC50 [4] | EC50 (CCK-1R) [5] | IC50 [6] | EC50 (CCK-2R) [7]
1 | D[sY]LGWP[DMeAsp][NMeF]-NH2 [Asp-sTyr-Leu-Gly-Trp-Pro-DMeAsp-MePhe-amide] | 0.11 nM | 0.34 nM | > 1000 nM | – | – | – | –
2 | {C18 diacid-γGlu-AEEA-AEEA}-D[sY]LGW[Met(O2)][dNMeD][NMeF]-NH2 | – | – | > 1000 nM | 0.64 nM | 0.14 nM | – | –
3 | {C18 diacid-γGlu-AEEA-AEEA}-E[sY]LGWQ[dNMeD][NMeF]-NH2 | – | – | > 1000 nM | 0.097 nM | 0.22 nM | – | –
4 | {C18 diacid-γGlu-AEEA-AEEA}-[sY][Nle]GW[Nle][dNMeD][NMeF]-NH2 (SMILES CCCC[C@H](NC(=O)[C@H](Cc1ccc(OS(=O)(=O)O)cc1)NC(=O)COCCOCCNC(=O)COCCOCCNC(=O)CC[C@H](NC(=O)CCCCCCCCCCCCCCCCC(=O)O)C(=O)O)C(=O)NCC(=O)N[C@@H](Cc1c[nH]c2ccccc12)C(=O)N[C@@H](CCCC)C(=O)N(C)[C@H](CC(=O)O)C(=O)N(C)[C@@H](Cc1ccccc1)C(N)=O, X = Nle or Nal) | – | – | 440 nM | 0.039 nM | 0.37 nM | 6500 nM | –
5 | {C18 diacid-γGlu-AEEA-AEEA}-D[sY]AGW[Nle][dNMeD][NMeF]-NH2 (SMILES CCCC[C@H](NC(=O)[C@H](Cc1c[nH]c2ccccc12)NC(=O)CNC(=O)[C@H](C)NC(=O)[C@H](Cc1ccc(OS(=O)(=O)O)cc1)NC(=O)[C@H](CC(=O)O)NC(=O)COCCOCCNC(=O)COCCOCCNC(=O)CC[C@H](NC(=O)CCCCCCCCCCCCCCCCC(=O)O)C(=O)O)C(=O)N(C)[C@H](CC(=O)O)C(=O)N(C)[C@@H](Cc1ccccc1)C(N)=O, X = Nle or Nal) | – | – | 97 nM | 0.068 nM | 0.22 nM | 280 nM | –
6 | {C18 diacid-γGlu-AEEA-AEEA}-D[sY]FGW[Nle][dNMeD][NMeF]-NH2 (SMILES CCCC[C@H](NC(=O)[C@H](Cc1c[nH]c2ccccc12)NC(=O)CNC(=O)[C@H](Cc1ccccc1)NC(=O)[C@H](Cc1ccc(OS(=O)(=O)O)cc1)NC(=O)[C@H](CC(=O)O)NC(=O)COCCOCCNC(=O)COCCOCCNC(=O)CC[C@H](NC(=O)CCCCCCCCCCCCCCCCC(=O)O)C(=O)O)C(=O)N(C)[C@H](CC(=O)O)C(=O)N(C)[C@@H](Cc1ccccc1)C(N)=O, X = Nle or Nal) | – | – | 390 nM | 0.065 nM | 0.41 nM | 5600 nM | –
7 | {C18 diacid-γGlu-AEEA-AEEA}-D[sY]SGW[Nle][dNMeD][NMeF]-NH2 (SMILES CCCC[C@H](NC(=O)[C@H](Cc1c[nH]c2ccccc12)NC(=O)CNC(=O)[C@H](CO)NC(=O)[C@H](Cc1ccc(OS(=O)(=O)O)cc1)NC(=O)[C@H](CC(=O)O)NC(=O)COCCOCCNC(=O)COCCOCCNC(=O)CC[C@H](NC(=O)CCCCCCCCCCCCCCCCC(=O)O)C(=O)O)C(=O)N(C)[C@H](CC(=O)O)C(=O)N(C)[C@@H](Cc1ccccc1)C(N)=O, X = Nle or Nal) | – | – | 940 nM | 0.058 nM | – | 4700 nM | –
8 | D[sY]KGW[Nle][dNMeD][NMeF]-NH2 (N-terminus assumed; SMILES CCCC[C@H](NC(=O)[C@H](Cc1c[nH]c2ccccc12)NC(=O)CNC(=O)[C@H](CCCCN)NC(=O)[C@H](Cc1ccc(OS(=O)(=O)O)cc1)NC(=O)[C@@H](N)CC(=O)O)C(=O)N(C)[C@H](CC(=O)O)C(=O)N(C)[C@@H](Cc1ccccc1)C(N)=O, X = Nle or Nal) [Asp-sTyr-Lys-Gly-Trp-Nle-DMeAsp-MePhe-amide] | – | – | > 1000 nM | 0.03 nM | 0.26 nM | – | –
9 | D[sY]SGW[Nle][dNMeD][NMeF]-NH2 (N-terminus assumed; SMILES CCCC[C@H](NC(=O)[C@H](Cc1c[nH]c2ccccc12)NC(=O)CNC(=O)[C@H](CO)NC(=O)[C@H](Cc1ccc(OS(=O)(=O)O)cc1)NC(=O)[C@@H](N)CC(=O)O)C(=O)N(C)[C@H](CC(=O)O)C(=O)N(C)[C@@H](Cc1ccccc1)C(N)=O, X = Nle or Nal) [Asp-sTyr-Ser-Gly-Trp-Nle-DMeAsp-MePhe-amide] | – | – | > 1000 nM | 0.035 nM | 0.19 nM | 3600 nM | –
10 | D[sY]AGW[Nle][dNMeD][NMeF]-NH2 (N-terminus assumed; SMILES CCCC[C@H](NC(=O)[C@H](Cc1c[nH]c2ccccc12)NC(=O)CNC(=O)[C@H](C)NC(=O)[C@H](Cc1ccc(OS(=O)(=O)O)cc1)NC(=O)[C@@H](N)CC(=O)O)C(=O)N(C)[C@H](CC(=O)O)C(=O)N(C)[C@@H](Cc1ccccc1)C(N)=O, X = Nle or Nal) [Asp-sTyr-Ala-Gly-Trp-Nle-DMeAsp-MePhe-amide] | – | – | > 1000 nM | 0.055 nM | 0.16 nM | – | –
11 | {C18 diacid-γGlu-AEEA-AEEA}-D[sY]LGWA[DMeAsp][NMeF]-NH2 | 0.65 nM | 0.17 nM | – | – | – | – | 880 nM
12 | D[sY]LGWV[DMeAsp][NMeF]-NH2 [Asp-sTyr-Leu-Gly-Trp-Val-DMeAsp-MePhe-amide] | 0.62 nM | 0.34 nM | > 1000 nM | – | – | – | –
13 | {C18 diacid-γGlu-AEEA-AEEA}-D[sY]LGWQ[DMeAsp][NMeF]-NH2 | 0.084 nM | 0.17 nM | – | – | – | – | > 1000 nM
14 | {C18 diacid-γGlu-AEEA-AEEA}-D[sY][Nle]GW[Nle][dNMeD]W-NH2 (SMILES CCCC[C@H](NC(=O)[C@H](Cc1ccc(OS(=O)(=O)O)cc1)NC(=O)[C@H](CC(=O)O)NC(=O)COCCOCCNC(=O)COCCOCCNC(=O)CC[C@H](NC(=O)CCCCCCCCCCCCCCCCC(=O)O)C(=O)O)C(=O)NCC(=O)N[C@@H](Cc1c[nH]c2ccccc12)C(=O)N[C@@H](CCCC)C(=O)N(C)[C@H](CC(=O)O)C(=O)N[C@@H](Cc1c[nH]c2ccccc12)C(N)=O, X = Nle or Nal) | – | – | > 1000 nM | 0.91 nM | 0.24 nM | 3000 nM | –
15 | {C18 diacid-γGlu-AEEA-AEEA}-K[AEEA]D[Phe(4-CH2SO3H)][Nle]GW[Nle][dNMeD][NMeF]-NH2 (X = Nle or Nal) | – | – | – | 0.081 nM | – | 7400 nM | –
16 | D[sY]LGWL[DMeAsp][NMeF]-NH2 [Asp-sTyr-Leu-Gly-Trp-Leu-DMeAsp-MePhe-amide] | 0.042 nM | 0.25 nM | > 1000 nM | – | – | – | –
17 | D[sY]LGWA[DMeAsp][NMeF]-NH2 [Asp-sTyr-Leu-Gly-Trp-Ala-DMeAsp-MePhe-amide] | 0.53 nM | 0.22 nM | – | – | – | – | > 1000 nM
18 | D[sY]LGWQ[DMeAsp][NMeF]-NH2 [Asp-sTyr-Leu-Gly-Trp-Gln-DMeAsp-MePhe-amide] | 0.075 nM | 0.15 nM | – | – | – | – | > 1000 nM
